# Source: a protein production outcome set (Wang et al. 2014)
# Assay: label from the status in PepcDB records
row,Sequence,protein production
1,MLTFAAAVLFLIITPGPGVMTTAGFGAAYGFRASLSYVVGLFIGTNLVMLAVMTGLAAVLLSVPGLRLVLLVLSVGYLLYLAALIALAGARVAFIEARSAPGVMRGVLLQAINPKAYAVNTSLITGFNYAPDAFLFEMFTKALILNAIWIPIHLAWLWAGAALHRLNLPHSTQRAINILMALSMLGVVALALWSASRVKA,failed
2,MLTFETLCQWHRAWLGNVYSWAGQSRTVDMSKPNIRFASPVQIPKLAEKFEARYLPRFAELPEMTDEELVAFLAEVHVEFILIHPFREGNGRISRLLLDVMAAKAGAEPLDYSLWDEHKDFYFKAIQAGRDGDYQHVERLIRDVLEAQQLEHHHHHH,failed
3,MLTGRRYLLAFTPEQEEFAEKIGDACRVVWNTALEQRRQYRRRGAFIGYVEQARQMAEAKKDFPWLAEAPSHTLQQTLRDLERACKTHGTFKVRWRSKRKNAPTFRFPDPKQITVERISRRWGRVKLPKLGWTRFRWTRPLGGQLRNATVLKDGGRWYISFCVEDGLMESAPNGKPPVGVDRGVTVAVATSSGWMRDREFVTPGEAVRLKRLQQQLARQRKGSNRRAATRAKLTKLNARIRARRTDFLAWTANRLTCDHGLVVVEDLNIRNMTASAKGTLAEPGRNVAAKAGLNRAILAKGWGGLLTALEHKARYHGSRILRVPPAFTSQTCHACGHCAPDNRESQAEFRCRACGHQANADVNAAKNILAAGLAVTGRGDLAVGRSVKRQPPKVEAA,failed
4,MLTKSVAVITSTIGRPELERAIQSVQQQTYPCQHYVFVDGVQFAEQAKQILDKYPQVIVTYLPMNTGANGWSNSSINAIAPFLAKEDMICYLDDDNWYEPNHVETCLTCLMQNQLDYVYSYRNLINSVNNHFICRDTFESVGPNKALKLDISSNMLNIAGSIQLHNENHIDTNTYFLTRKVALEASQYWYSGRSNDNNVSNWLLFSAYKGICTKTYSVNYLFDPTTFFNTFYQMICQNTPLNSSEQDKIAILEALIRAISDSQASD,failed
5,MLTLAPCGRGPCAARGEGASRPVLTKSHSSSRLKPTSAGQHPGAGRGPLAWGMTEPVPVAPFPSVFGGVQQLRPDVFRVRLPLVNIFLMGVPGGDWVLVDTGMPGTAGLIRQAAAQVYGARAPQAIVLTHGHFDHIGALHALLAEWNVPVYAHPDELPHLTGEVPYRFPDPTVGGLMSLTSPLFLPGPYDFRPQVRTLPEDGTVPELPGWRWVHTPGHTEGHVSLWREADRLLIAGDAVVTTPQETVPGALASTPTVLRRPPAYYTPNWNATRDSVRTLAALRPALVATGHGHPLTDDSLGDALTRLADDFDHDPNGRPAHGWYLGHPAPMQKPRPGEPDPMRTLFLGALGAAGALWLLGRRRR,failed
6,MLTLVLASAQSPDLRGRGPDMEPRSSVAKSGVALGVLLLIGLPVAAQNSKVKTNYLSHIEPCNGVGATPLDVRIDACTAFIEASQGTTAALAIAYNNRGNAYTAKGDYDKAIRDFDQSIALKPTYAKAFNNRGVAYLRKGEYELAIEAFDDAIKLDPDYVAAFVNRAGAYLKKNDHQRAAHDYDEAIRLQPDSQAARSGRCWTRAVLGAWQAALEDCDRALQSGSTSAAVYDSRGLIHLKMGEFGAAIADYNSALRAAPELASALFGRGLAKLKQGDAIGGDSDISAAKTIQGNIGDEFAHYGVGRD,failed
7,MLTQEQIDGIYEDLEHPFHFLWFDIGDAHGVSSGETDPASFEERKKDFLFLVEKLLDEGKLKLGNRKTELIIDGTTAELVEMFRKSFPASDEEMLEGLWLVTEDCPFVAVWLFEGENGEDYYGWC,failed
8,MLTTFIVNSPILASIVFTLITIATYQFASACQQKWQYIWLNPMLFTISILVPFLLLIDINYQEYSQTTEILNLLLEPAIVALGMPLYQQFKQIRFYWREMTAILVLGITVVITVSFLLAMWLIKAPEIAIALSLKSVTTPIGITLTEQLFGDSSITAFAILIAGLFGALLGPQWLSFIGINSAKAQGLAIGSASHVIGTAVLVRKSAEHGAYSSVALILSAILTALISPWLIPLLQRLVT,failed
9,MLTTRLLISQRGRIAMKQVHLLTPVAGQLVPLESVHDPVFSQGMMGQGFGIEPTDGQVVAPISGKVTMVAASLHAIGFTGNNGLEVLVHLGIDTVELADRPPFKVNVQVGDTVEAGEKVAMMDLAAITSANKDTTVIMAVTNTADMVTKLTPELGEVRAGVVGAVVELKEHVAEASVVKGKGGKYDELATQIIAQVGGPVNVKSVIHCITRVRFYLKDEGQANDEAIRNLKGVIDVAKAGGQYQVVIGPAVTDVYDAIVGQLGAGFGDADASAVAMEKEANRLAWQKMTPWQKVKHGFSSLIGVITGSMIPVIGLLAASGILKGILSLLKNFNLVSATTPTYVIINAMGDSVFYFLPIFVGFTAAKKLGADPVIMGIIGGVLTYPAIVGMATTGKVTGHLLGMAINANFFGIPVHVASYTYSIFPMIAGAWLASKLEPWLKRVIPTVLRMIFVPLFEVVIISGAIIIILGPIITALSGALAAGIVAIYKLSPAISGLIIGGFYQVLVIFGLHWAIIPIVVNDITTTGHSYLNAIVSATMVAQGGAVLAIALKSKFANIKELAWPATISAFCGVTEPAMYGINLKYGRAFITASIGGAVGGFLTGLFNVNMWGFAGSLIGVTSFINPKGLDFSFYGFLIASAIDLIVAFTLTWMFGFSDNDVKNVKKAPEKKHLGQQVAN,failed
10,MLTVEPSEIQLTPGPILSLYLDLAGHLNWHIRSNLYLRGAEPRLDQKDPAAAAILELSLRLGSAPGGSVSCCWVTVSPGRMSVIDHVRDMAAAGLHSNVRLLSSLLLTMSNNNPELFSPSQKYQLLVYHADSLFHDKEYRNAVSKYTMALQQKKALSKTSKCLPSEIEVKYKMAECYTMLKLDKDAIAILDGIPSRQRTPKINMMLANLYKKAGQERPSVTSYKEVLRQCPLALDAILGLLSLSVKGAEVASMTMNVIQTVPNLDWLSVWIKAYAFVHTGDNSRAINTICSLEKKSLLRDNVDLLGSLADLYFRAGDNKNSVLKFEQAQMLDPYLIKGMDVYGYLLAREGRLEDVENLGCRLFNISDQHAEPWVVSGCHSFYSKRYSRALYLGAKAIQLNSNSVQALLLKGAALRNMGRVQEAIIHFREAIRLAPCRLDCYEGLIECYLASNSIREAMVMANNVYKTLGANAQTLTLLATVCLEDPVTQEKAKTLLDKALAQRPDYVKAVVKKAELLSREQKYEDGIALLRNALANQSDCVLHRILGDFLVSVNEYQEAMDQYSIALSLDPNDQKSLEGMQKMEKEGSPTDATQEDDVDDMEGSGEEGDLEGSDSEAAQWADQEQWFGMQ,failed
11,MLTVGILGGGQLGWMTILEGRKLGFKFHVLEDKENAPACRVADRCFRTGQISEFVDSCDIITYEFEHIKDEVLEKCESKLIPNPQALYVKKSRIREKLFLKKHGFPVPEFLVIKRDEIIDALKSFKLPVVIKAEKLGYDGKGQYRIKKLEDANQVVKNHDKEESFIIEEFVKFEAEISCIGVRDREGKTYFYPQPFNKHEEGILIYNYVPYAKLKEAEEITKRLMELLDIVGVFTVEFFLLKDGRVLINEFAPRVHNTGHWTLDGAYTSQFENLLRAITEMPLGSTELKLPSGMVNILGKSYEEIPLKEILSVEGAKLYWYGKEKKPRRKVGHVNVVGRSKEEVVEKVERVFTLLKGSREKLPAP,not failed
12,MLVLILLSSSLAIFAIINLSYSLGDAKAINASGSLRMQSYRLMFYANSGSEAAQEKITEFENTLHSEALHPSKSWLSPKKIAAQYQLVIDKWLVMKYYIEQENSRDYAASLKDFVDTIDLLVLEMEHHAAFKLRLLAASQIFGLGLMLSIAFLAVRFTKRKVVVPLQQLMESANTISKGNFEIEMPETEYIELTALTDALQKTARELATLYGNLESQVAEKTLALTRANNELAFLYDTLLTLNAKKLDYKALKAALNQLKDYESIDYLRLIIQYPEQELEMIEANGGWPESADNSTRFPLQFEQANLGYLELISAQDINTPLFKNFAIMLTRSIVIHNATEQRQQLALMEERGVIARELHDSLGQVLSFLKIQISLLRKNLDHSCRSPAVEVQLTEINEGVSTAYVQLRELLSTFRLTIKEPNLKNAMEAMLEQLRANTDIKIHLDYKLSPQWLEAKQHIHILQITREATLNAIKHANASHINIRCYKDDRGMVNISVSDNGVGIGHIKERDQHFGIGIMHERASKLDGEVVFSSNDTHTNSTATTEQRHQENPDSPLESHNTSNLSQGTIVTLIFPSQQEPTHG,failed
13,MLVLSYILLFASALFAWNMGSHYSGAVMGMAYGSKSLTIRQATVIAATFAFLGTITASSGVVHTYAFSLVGTTTIRQLTAALLGASVAILISTILKLPASTIQVYTFSLLFVGLASNIKLMYGGIEIVLSMWILMPLAAMLLSYLLAPKLVSKLADDSRKLKIIIIGSSVFSSFTLGSNDVSSAISPLVKVGILTGIVPYVFGGFFIGLGLITWGQRLIRRVGTEVVKTNAPLAAAAQLTEAIVIISGNLVGYNASINQTIIMSIYGAKRSMKSHVVTPMIFRSILLNWTVSSLISAVFGLFFLFILNLYI,failed
14,MLVSIILVNYNGADILPDCLNSIDKFISKDNCEILLVDNASQDNSYELVAQDFPDVKIVRLPKNYGFGAGNNAGAKIAKGKFLLLLNTDTILTTNILPHLIDLMRENPDVGIIGTKLVFPDETFQISFAYTIGIKGEYKSRKLHEYAEDKSKLNSLEQEFNTIKEVDIVVGAALFIRADLFHSVGGFDEKFFIYFEDADLCRRVQNQGYKILYTPQVSLIHIRGHSMKKNLEHHHHHH,failed
15,MLWFLTCVAALVGGYFIYGAFVEKVFGINEKRQTPAHTKTDGVDYVPMSTPKVYLVQLLNIAGVGPIFGPIMGALYGPAAMLWIVVGCIFAGAVHDYFSGMLSIRNGGASVPSITGRYLGNGAKHFMNIFAIVLLLLVGVVFVSAPAGMITNLINQQTDFTVSMTTMVVIIFAYYILATIVPVDKIIGRFYPLFGALLIFMSVGLMTAIAFSSEHQVLGGFEISDMVKNLNPNDMPLWPALFITIACGAISGFHATQSPLMARCMENEKNGRFVFYGAMIGEGIIALIWCTVALSFFGSLEALSEAVKNGGPGNVVYGASFGLLGVFGGVIAFLGVVILPITSGDTAFRSSRLILAEYFNMEQKTLRNRLLMAVPLFVIGAVLTQVDFGIIWRYFGFANQATAVMMLWTATAYLMRHNKLHWICTVPALFMTTVCISFILNSSTLGFGLPMQISTIAGVLASLGALAYVAKVSKGKGETDLADEEKPQGVTKTA,failed
16,MLWGMETAVRPEPAPSPLREHLAAGLKGLHPAYFALVMATGIVSIVSDVLGLREAAALLFWLNVPAYAVLWLLVAARALRYPRALAADLASHQRGPGFFTSVAATCVLGLQLVLLRGDAAAALALWWVGMLLWCACTYAVFVALAVRDPKPTLGEGINGGWLVAVVATQSVVVLGTRALVPRYPGSEAVLFFLASLWLCGGMLYVWMISLIFYRYMFFRFSPSDLMPPYWINMGAVAISVVAGTSLAALAPGSAFLGALLPFVKGLTLMFWATATWWIPMLVLLGIWRHGGPSRIRIAYDPLYWGLVFPLGMYALCTYRLGELFAMPVLPWVARTFATVALAAWLLTAFGLAGRFLQLVVLAVRSLHAERGAAGPQPGSLERMARRS,failed
17,MLWHVFYGRGRMLLSNHAQGRNFRPIFVMSDPISWTAEATERLKEIPFFVRPAARKKIENFAREAGITEITETVYEQAKQKFN,failed
18,MLYFDHWTKVPADIWRWPNFSPEEIACRSTGKVGIDPQAMDKLQALRDRLGAPLMLNSAYRSPEHNRAEGGAPASEHLKARAFDVSMINHDPAEFEAAARAVGFTGFGFYRRNNFIHVDIGPAREWGNRWFDRVPHGAPLRPAPRFSPPPKLRPETLAEDRGARGTALGAGGGVALIGALGNVVGDLNPTAQAIAFGGAIVLAASLAYLIRDKIREWA,failed
19,MLYIIGLGLYDEKDITVRGLEAVKSCDLVFLEHYTAILQCDVAKLEEFYGKKVIIGDRDLVETEADQILEPAKTKNVALLVVGDVYGATTHSDIFVRCQKMGIEVKVIHNASIMNAIGCSGLQLYRFGQTVSVCFWSEHWRPSSYYPKIKINRDNNMHTLVLLDIKVKERSEENIIKGRDIFEPPRYMTINQCIEQLLEVEKEQHLGVYDEDTMVVGMARVACADQKIVYGKMKDLLHYDFGAPMHCLLIPAPQVDDPELDHLEYFKYKPE,not failed
